Source: patent US20180280488A1, “Methods and Compositions for Binding Complement C3 for Targeting of Immune Cells” (University of Alaska Anchorage, priority 2017, published 2018)

Experiments:
[1] = test system: OVA-specific T cell hybridoma D011; assay: T cell activation: BMDC co-culture with OVA-specific reporter T cell hybridoma D011 (GFP); assay type: cell-based, mice; conditions: BMDC 24 hours with OVA treatments, D011 T cells 24 hours; mean±standard error (n=3)
Method: Bone marrow was extracted from adult BALB/c mice. Mice were euthanized and femur and humerus bones removed and cleaned of tissue. Bones were kept in RPMI in a sterile petri dish, and bone marrow was flushed from bones using RPMI and a 1 mL insulin syringe. Extracted bone marrow was filtered through a 100 μm nylon mesh filter and rinsed twice in RPMI. Bone marrow cells were then counted and plated at a density of 2×10^6 cells in culture medium (RPMI, 10% heat inactivated FBS, 1% penicillin/streptomycin). Granulocyte-macrophage colony stimulating factor (GM-CSF) and Interleukin-4 (IL-4) were added to the culture medium at 40 ng/mL and 20 ng/mL, respectively. Cells were incubated at 37° C. and medium with GM-CSF and IL-4 was replenished after 3 days. On day 6, non-adherent and loosely-adherent cells were harvested by pipetting and re-suspended in culture media.
10 μL of OPSS-liposomes containing OVA, control-liposomes containing OVA and free OVA matching the amount encapsulated in OPSS-liposomes (see liposome preparation) were incubated in 10 μL C3-positive and -negative serum for 1 hour at room temperature prior to addition to 80 μL of bone marrow-derived dendritic cells in RPMI (1% penicillin/streptomycin) containing 1.6×10^5 cells per well in a U-bottom plate. […] The co-cultures were then analyzed for T cell activation (GFP expression) by fluorescence microscopy and flow cytometry.

[2] = Liver toxicity assays (plasma AST, ALT); assay type: in vivo; conditions: A20-OVA mice, 4 days after last injection
Method: Mice were euthanized following therapy, 4 days after the last injection and blood was collected via cardiac puncture and placed in heparinized tubes. Plasma was separated from blood via centrifugation at 500×g for 15 minutes and frozen at −80° C. for subsequent analysis. Red blood cell lysis buffer (eBioscience) was added to the remaining blood for 10 minutes at room temperature. Samples were then prepared for flow cytometry analysis or frozen in culture media supplemented with 10% dimethyl sulfoxide for later use.
Mouse plasma levels of aspartate transaminase (AST) and alanine transaminase (ALT) were determined using kits purchased from BioAssay Systems (Hayward, Calif., USA). Plasma was collected from mice as previously described. Plasma samples were diluted 1:1 in assay buffer prior to addition to a Falcon flat-bottom microtest 96-well assay plate, black/clear bottom (Becton Dickinson Labware, Franklin Lakes, N.J., USA). Absorbance was measured at 340 nm at 5 and 10 minutes using a BioTek Synergy HT plate reader, and enzyme activity was calculated according to the protocol.

ovalbumin [free OVA, Non-encapsulated ovalbumin, model tumor antigen, matched to the encapsulated amount]
T cell activation (GFP expression) [1]: 14.4±0.8%

B1: ovalbumin (protein, UniProt P01012 2-386, looked up)
Ovalbumin: GSIGAASMEFCFDVFKELKVHHANENIFYCPIAIMSALAMVYLGAKDSTRTQINKVVRFDKLPGFGDSIEAQCGTSVNVHSSLRDILNQITKPNDVYSFSLASRLYAEERYPILPEYLQCVKELYRGGLEPINFQTAADQARELINSWVESQTNGIIRNVLQPSSVDSQTAMVLVNAIVFKGLWEKAFKDEDTQAMPFRVTEQESKPVQMMYQIGLFRVASMASEKMKILELPFASGTMSMLVLLPDEVSGLEQLESIINFEKLTEWTSSNVMEERKIKVYLPRMKMEEKYNLTSVLMAMGITDVFSSSANLSGISSAESLKISQAVHAAHAEINEAGREVVGSAEAGVDAASVSEEFRADHPFLFCIKHIATNAVLFFGRCVSP
notes: Non-encapsulated ovalbumin, model tumor antigen, matched to the encapsulated amount
ALT in mouse plasma ([2]; normal range 15-84 U/L): 51.2±34.7 U/L | AST in mouse plasma ([2]; normal range 54-298 U/L): 110.4±25.6 U/L
